Assay results published in a protein production outcome set (Wang et al. 2014).

assay: label from the status in PepcDB records
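Also: failed if final PepcDB status was selected cloned or expressed and not failed if soluble or beyond.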

Sequence | protein production
MLTHHKNKLKTIEWTSYVWLAYLPYTIAAYIPVKSWHDWLWLLLVGGFLVLYILVVEKPHWRAVTMPAELVVTGLFAVFAANNFMIIFPGWQVSFLLGRRPKREFYGFALGYYAFLIGGCIRDYLQYPGVFGWHNGDVMGLVFPLLSPILAYTFSWSVERQRQLNQTNRRLKTIVERNERERIARDLHDTLGQSFSMITLKTELAKKLLVKAPEKVAPELDEIEQTSRQNLQLVREIVNNLHEQSLTEVLLAQTRNLAAVGVWTTTTGETQATKWPTTVQSCFAAVLVEAMTNVMRHAHAHEVRIDFVETAKIYQIKLKDDGKGGTLIRQGANGIAGMRTRLQAKQGTFAITSSRRGTQLILTLPKE | failed
MLTHKTCQARKKMQVSFVIRDAEEKQHRNGVNALQLDANNGKLYSAGRDAIIRVWNTRTDSSEKYIQSMEHHNDWVNDIVLCCNGRNLISASCDTTVKVWNAQKGFCMSTLRTHRDYVQALAYAKDREQVASAGLDKAIFLWDVNTLTALTASNNTVTTSSLTGSKDSIYSLAMNPSGTVIVSGSTENILRIWDPRTCMRRMKLRGHTENVRCLVVSPDGNQVVSGSSDGTIKVWNLGQQRCVQTIHVHKEGVWSLLMSENFQYIISGSRDRNIIVTEMRNPSNKTLVCEEQAPVLSLGYNIDKTGVWATTWNSDIRCWKLPMYDRCTLNSSGGMDAQWTQGGTEVACIKGGAAIKECAVLNDKRYIITKDSQDQVVVYDVLRVVKKEQLGAVDFEAEVKKRNKQVYIPNWFTVDLKTGMPTIVLGQEEVDCFSAWVSIEAGLPECVDPTTEIKINYGKLLLEALLEYWTPPHSIPPNEMEPDMHGNGYFQVPKHTPVIFSEVGGRTVCRLLVRDAAGDSESTLLHETAPQWVTDVVIEKNIPKFLKIPFFLQPHPQMTKPERTKKDRLVANEFIQCRKVCEHVLEKVLNAETTPSGGNANNSLQNSQSDANSEGSQLPAEERIELWCNDVVVDPNMDLRTVRHFIWKQSTDLTFQYKTKQNFNYDGK | failed
MLTLHIGGIGIGEPLWFICNILVSFIFSYKLFNSILHNNNISYIFALIYTFSPAMAVLTYSTSWETVLSYAFSPLILYLLYLTFNNLELKGLSFDLILISIFMYVYYFDTDVIMWEGILVVSMLIYLTISHTNRKNCS | failed
MLTLPAPEPIAHMEVTSYRAGVQGGSGLWRGQAVYVKTLVSDDPDRVAMFHHEGAVAARLSHPLVTPLLAHTPNQLIFPLLRGGTLRDLVRCGPLDADAATQVTWGVLQAVSHLHGRGVTHHDLKPENVLLIGGQSQVEAVRLIDFGMSHAAGLPLDIHSGTRMGTPQFMAPEQFQGVRGDPRSDLYSVGVLLFDCLAGHPPYADALGWLVGISEERAAAPGPSALHPLMLRAIQRDRDSRPQSAAEMLAALADARQQLGLPELEHIAPEGQTAGENA | failed
MLTRPMGEGYIQYLRLSKETTQPADSKIPGLWSSSVRPEFCCIYRVPDRLRKVNPEAYTPQMLLIGPLHHSKKAEALKRYKTDLRYLNYLNMELHKKKCLDSIADIYGDQPVKEFRRIIEINEKFIRDSYAESTIWINTKDFVEMILHDSVFILLFFIQTGSTLNFNKKEDILFNQSRLINATAILEDLILLENQLPYALLEKLFEPFSSNVNTKETFRDITLRAFRFEGKIKEEVRFQHFTDLFRCVRVSTLSLTEEQINIAKNEPPKSRKIMYNADKLDSAGVNFVNVDEENDLSLVITFKDGILKMPCFTVEDNTERVVRNLMALEQCHYPRTTFVCDYISFLDFLINTDQDVDLLAKKGIVKNWLGHQGSVTEMVNKLCLGLVDFGSHYSDIVENLNKHYDNRLNRSVGTLRRVYFKDLWTGTATIAAVVLLVLTLIQTVASILQVMMQNDNKSPPPPAPSRGL | failed
MLTVIAEIRTRPGQHHRQAVLDQFAKIVPTVLKEEGCHGYAPMVDCAAGVSFQSMAPDSIVMIEQWESIAHLEAHLQTPHMKAYSEAVKGDVLEMNIRILQPGI | not failed
MLVALITLAFIHFCALITPGPDFFLVSQTAVSRSRKEAMLVVAGITAGVMFWASLALMGLNIIFEKMAWLKQGLLIAGGLYLCWLGYQMLRSAFSKNQQEEVTTVELPKAPYLFFMKGLLTNLSNPKAVIYFGSVFSLFLANPQLDQVHWLLFIIVSVETILWFCFVTFIFSLPSFRAAYRNFSKWIDGISGGIFTVFGIFLIGNR | failed
MLVKININGKKKSVDIEPEEYLVDTLRKVGNLSVKRGCDTGCCGLCTVLIDKKPTLSCATLTLRALDKEITTIEGLENEVKEFSEVLVKEGAEQCGFCSPGFILTVLAMKDELENPTDDEIKHYLTGNLCRCTGYMGQLRAIKTYLEVK | failed
MLVMIDTKRPPVYIDSQVGLNTFFLIRGRYPSLNLFVSFITTVKTLGNNVSRTHGDDAESDRVSNVDENNEAVDEQDNIEDDKTDEDEKEGDNEDGDGYDDYQGDDESMGGSTLDPTIDGSESSDEDCDYNKWNDVIVEEYGMLRRTSFSHQGNSVVCWQSVRTQVSVYLTEITFLTRVTVHQL | failed
MLVNGKWTADWQPVQKADDHGRFVRQVSSFRNWITPDGSAGPTGTGGFAAEAGRYRLYVALICPWASRTLMARRLKGLDGLIPVTVVNPVMGTQGWEFGGHDDAEEDPLFGARHLHEIYTRAEPQFTGRATVPVLWDMKRDAMVNNESADILRMFDTAFEGLAPSDLRLYPAALAGEIDALNAQVYDRLNNGVYKAGFASTQEAYDEAVAGVFEMLDHLEYRLTGDYIFGGALTETDIRIFVTLIRFDAAYHGLFKTNRRQIADYPRLWAYMRRILARPGVRETVNMDHITRGYYSIKALNPSRIRPVGPAHIEAALRETAAGI | not failed
MLVQAIMTSPAITVTASASVAEAARLMLDNRISGLPVVGANGALVGIVSEGDFLRRSELSTERKRSWLLEWLTSSGRIAAEYVRTHGRRVEEVMTAPVSAIAPTASLSDAVRLMERQEIKRLPVVEGGRLVGIVARSDLLRALSQALPATSTSAGDAQIQAAIEAALAKQSWSRNGFIHSRVTDGIAELTGTVFDERERLAAKVAVENVAGVTSVKDQLVWVDPYYGIALPPPDAETSQA | failed
MLVRTLSALECTKVLTANRVGRLACAKDGQPYVVPLYYAYSDAHLYAFSMPGKKIEWMRANPRVSVQVDEHGQGRGWKSVVVDGRYEELPDLIGHKLQRDHAWSVLSKHTDWWEPGALKPVTPPTADSAPHVFFRILIEQVSGREASE | not failed
MLVTSLVVKPALSTTLKMCTFSTLSAFVLTACSGNAETTNVAEIQHDMGSATAAASPKATAPEGTVLKRSAIDALQTVGNSIGIKIGSHLELGSAADFEKGNTTKVSIDAECFDMTSSSKAFIVACSDGVHSVDPVSGKNSVIAQPTETAHYAVQVSTGEVLVAHRDSNKVEVFNDGEKLSEVATEYGSDQLISVPIEGQADAVVRINNKYTLIQDVNWKESKPGAILRVGKGVGRISAAKQGVVLASDAKKNQFAVYGAKDVIRLHQTSPTGPSPWGITWDNKHDLAWVATTGDNKVTGYDISSGTGSEKSSYNTIENVHNIAVLDDGTLVLASASGAGLQLVKSQTD | failed
MLVWEELREKALNKIYHDKEIGYLDPDILGFLLAFYRNRNDVYTQSSCSGRITIVDAEMPWDRKNSTIIFKNHLRITEQDLEDVLSKNQVRRLWLIVQGPIIHIYAKNIETGWDILKIAREAGFKHSGILATNQKGVLVELRTGIRMVHLLRESNTERVDKDKIKTLVNVCNEVLARGKQKMNLLKDLLSSSSNNSMELGKNSKLKTPI | not failed
MLWRKRLFAHLYPGLSARHEALVAERKRALFREALRRARPERVLEIGPGPGTNLAHLPEGVAYLALEPNPFFHPRLREEARKRGLALTLLPGRAEAIPLPGGSVDLVVATLVLCSVADPEKAIEEVHRVLRPGGAYLFLEHVAAPKGAPLRLLQEAATPFFVFFGDGCHPNRKTLAQIQARFPRVEAEAFSLPLPVVAPHVAGLAFKELEHHHHHH | failed
MLYIFTPTFNRGYRLSYLYDSLCNQTNKNFIWLIVDDGSEDSTKEIVSNYIKENKVSIVYLYKRNGGKHSAYNLAMRYMQPSDYHVCVDSDDWLLEDAVEIIFKDLESLTLSNRYVGLVYPRYSLNQGNNWLNPKILEVNIPDLKYKYHLKIETCIVINNAYLVDFEFPCFEGENFLSEEIMYIYLSKKGYFCPQNRKIYCFDYLEDGLTSNIFKLWRKNFKGTIFSLENSYMYVMSFPNIFDRWWSAIKIKMNIQALKMTTLGVIPTLKSEEAGWKILLGFSYLWKVARFKKSELEHHHHHH | not failed
MMDTVKNRRTIRKYQQKDITPDLLNDLLETSFRASTMGGMQLYSVVVTRDAEKKEILSPAHFNQPMVKEAPVVLTFCADFRRFCKYCQERNAVPGYGNLMSFLNAAMDTLLVAQTFCTLAEEAGLGICYLGTTTYNPQMIIDALHLPELVFPITTVTVGYPAESPKQVDRLPIEGIIHEESYHDYTAEDINRLYAYKESLPENKLFIEENQKETLPQVFTDVRYTKKDNEFMSENLLKVLRRQGFMD | not failed
MMDYALLSLMLLFTLLLAFILTRLKVSPVIAYLLGGLISFNYFHFDFNSSYFEILNFLALNLLAFEIGTSFDISRAKELFRRAMGIALTELILIVLISYFIGLYLLHLDLFASLFLVMASIDTSTSILYKIIGNKVDKNDRDLLVAVASVEDIEVFFLYSIAIALNGSFNVFRISFVILEVFIASLIIYAFAKYFLTGLSIFKFTSFEDESILILVPIVLVFVFEYISQVTQVPATLTMILAGIAFSSISGSEKVLRYTGPIREFSLIFFFLSVGSYLKITAGISTFVLISFIILAIKYFSFSTASWVSGTTLVKAFTNGLYMLPLSEFGIIVSLQALQQGIDIAIVYYISVVVVLVSSIIASILAVRVNVLQRVIGIVYSRSYFLRQLDSTIIWLNKTLSTNLSPILRSVLFRGFVKMFLYLILPYVLFPIINSIVKSIIDPINNLILQYLLYSGEIVIALFLLYLFLLEGSRLYSIINNEILVRIVRVRSRLFKEFWFGLTSFSSTFYTIILTIIYIIFEIIPLLYNFPIRLVFVPLLISLYFIYRYRAPPITYTRIDNKEADKIVKLSVKVIKKMRKRRSKRSIISTTKTVRREWS | failed
MMEFNVAENGGGSYRPLAILRWVMVVIFVSFGMQKFTLQSAQGIAQFITNSPFISWLSIFGLRGEAYVLGVAEFAIAALLAAGSFSPVLSAVGSFMGVVTFAITWSFFFTTPGVVTWSLSSDPMAWNLTGEFLFKDIVLLCVCAVLFLASLPRSAIRLRTG | failed
MMEKYNKFDLLWLLVPLSGLIVMGLMAVYSATNGSTESVPLFYKQLSWAVTGAIAASIIYFMDYRVVKDNAYFMYAAGIILLIAVLVFGKKVAGATSWVRFGMFSFQPSELTKMFTIIAMARFLSDDQTDIGNMMDLGKALAIALVPAGLIMLQPDMGTTLTCLSFIVPMIVLAGFDLYYILLGVVPVALMLSGFFNLTILATIAVLSMVMFFLLRKKFYLHQFLVTGGGLLGGLLTWKFTSVILKPHQIKRIQIFLDPTADPRGAGYNALQAKIAIASGGIFGKGFLHGTQTQLRYIPAQWTDFIFCVIAEELGFLGSTLLLLLFAALVLRLVWMVGAIKNRFVELLLAGYASLLLTHVVINIGMTIGVMPVIGVPLPFISYGGSSLVANMMMVGLAMNFSKNRRHIGY | failed
MMEQEIWVRVTRAAAKRKASTAMGIDEDRLNKKRVFLGELLNVSNVNLLSNLN | failed
MMFDFDKIIERQSDKCRKWDHAFVCSRFGDVPESFIPLWIADMDFTSPPAVIDGFRRIVEHGTFGYTWCFDEFYDAVIAFQRKRHQVEVEKSWITLTYGTVSTLHYTIQAYCKPGDSVMMNTPVYDPFAMAAQRQGVQVLANPLRVEENRYQLDFNLIEEQLKTYRPTLWFFCSPHNPSGRIWREEEIRQVSDLCQRYGTILVVDEVHAEHILDGKFVSCLTSGCAAQDNLIVLTSPNKALKLGGLKTSYSMIPDDSLRQRFRQQLEKNSITSPNLFGVWGIILAYQHGLPWLDALNDYLQGNARYLADALQTHFPAWKMMTPESSYLAWIDVSADESSATQLTQHFARQAGVVIEDGSHYVQNGENYLQINFGSQRYWLERSTNRMQ | failed
